According to patent US10925971B2, “Methods of treating PRLR positive breast cancer” (Regeneron Pharmaceuticals, Inc., priority 2016, dated 2021):

Target: T1, hPRLR-mmH (SEQ ID NO:406) (Homo sapiens, UniProt P16471)
T1 construct: this experiment was conducted with a truncated form of PRLR (i.e., hPRLR-mmH)
Assay: Epitope mapping by hydrogen/deuterium exchange with MALDI-TOF MS
Type: binding
Method: Experiments were conducted to determine the amino acid residues of PRLR with which H1H6958N2 interacts. For this purpose hydrogen/deuterium (H/D) exchange epitope mapping was carried out. A general description of the H/D exchange method is set forth in e.g., Ehring (1999) Analytical Biochemistry 267(2):252-259; and Engen and Smith (2001) Anal. Chem. 73:256A-265A.
To map the binding epitope(s) of antibody H1H6958N2 on hPRLR via H/D exchange, a construct comprising a recombinant extracellular domain of hPRLR with a C-terminal myc-myc-hexahistidine tag (hPRLR-mmH; SEQ ID NO: SEQ ID NO:406) was buffer exchanged to PBS with a final concentration of 8 mg/mL, and antibody H1H6958N2 was covalently attached to N-hydroxysuccinimide (NHS) agarose beads (GE Lifescience)
In the ‘on-solution/off-beads’ (on-exchange in solution followed by off-exchange on beads) experiment, the hPRLR was deuterated for 5 min or 10 min in PBS buffer prepared with D2O, and then bound to H1H6958N2 beads through a 2 min incubation. The hPRLR-bound beads were washed with PBS aqueous buffer (prepared with H2O) and incubated PBS buffer for half of the on-exchange time. After the off-exchange, the bound hPRLR was eluted from beads with an ice-cold low pH TFA solution. The eluted hPRLR was then digested with immobilized pepsin (Thermo Scientific) for 5 min. The resulting peptides were desalted using ZipTip® chromatographic pipette tips and immediately analyzed by UltrafleXtreme matrix assisted laser desorption ionization time of flight (MALDI-TOF)-TOF mass spectrometry (MS).
In the ‘on-beads/off-beads’ (on-exchange on beads followed by off-exchange on beads) experiment, hPRLR was first bound to H1H6958N2 beads and then incubated for 5 min or 10 min in D2O for on-exchange. The following steps (off-exchange, pepsin digestion, and MS analysis) were carried out as described for the ‘on-solution/off-beads’ procedure. The centroid values or average mass-to-charge ratios (m/z) of all the detected peptides were calculated and compared between these two sets of experiments.
The results are summarized in Table 29 which provides a comparison of the centroid m/z values for all the detected peptides identified by liquid chromatography and MS following the H/D exchange and peptic digest procedure described above. For purposes of the present Example, a positive difference (A) of at least 0.20 m/z in both experiments indicates amino acids protected by antibody binding. Segments meeting this criterion are indicated by bold text and an asterisk (*) in Table 29. [Note that, although this experiment was conducted with a truncated form of PRLR (i.e., hPRLR-mmH; SEQ ID NO: 406), residue numbering in the far left column of Table 29 has been adjusted to correspond to the amino acid sequence of the full-length PRLR protein represented by SEQ ID NO: 404.]

[1] = hPRLR peptide residues 61-71 of SEQ ID NO: 404, Experiment I 5 min on-/2.5 min off-exchange
[2] = hPRLR peptide residues 61-71 of SEQ ID NO: 404, Experiment II 10 min on-/5 min off-exchange
[3] = hPRLR peptide residues 64-71 of SEQ ID NO: 404, Experiment I 5 min on-/2.5 min off-exchange
[4] = hPRLR peptide residues 64-71 of SEQ ID NO: 404, Experiment II 10 min on-/5 min off-exchange
[5] = hPRLR peptide residues 64-72 of SEQ ID NO: 404, Experiment I 5 min on-/2.5 min off-exchange
[6] = hPRLR peptide residues 64-72 of SEQ ID NO: 404, Experiment II 10 min on-/5 min off-exchange
[7] = hPRLR peptide residues 72-94* of SEQ ID NO: 404 (* = protected by antibody binding), Experiment I 5 min on-/2.5 min off-exchange
[8] = hPRLR peptide residues 72-94* of SEQ ID NO: 404 (* = protected by antibody binding), Experiment II 10 min on-/5 min off-exchange
[9] = hPRLR peptide residues 72-95* of SEQ ID NO: 404 (* = protected by antibody binding), Experiment I 5 min on-/2.5 min off-exchange
[10] = hPRLR peptide residues 72-95* of SEQ ID NO: 404 (* = protected by antibody binding), Experiment II 10 min on-/5 min off-exchange
[11] = hPRLR peptide residues 96-101* of SEQ ID NO: 404 (* = protected by antibody binding), Experiment I 5 min on-/2.5 min off-exchange
[12] = hPRLR peptide residues 96-101* of SEQ ID NO: 404 (* = protected by antibody binding), Experiment II 10 min on-/5 min off-exchange
[13] = hPRLR peptide residues 96-102* of SEQ ID NO: 404 (* = protected by antibody binding), Experiment I 5 min on-/2.5 min off-exchange
[14] = hPRLR peptide residues 96-102* of SEQ ID NO: 404 (* = protected by antibody binding), Experiment II 10 min on-/5 min off-exchange
[15] = hPRLR peptide residues 133-147 of SEQ ID NO: 404, Experiment I 5 min on-/2.5 min off-exchange
[16] = hPRLR peptide residues 133-147 of SEQ ID NO: 404, Experiment II 10 min on-/5 min off-exchange
[17] = hPRLR peptide residues 134-147 of SEQ ID NO: 404, Experiment I 5 min on-/2.5 min off-exchange
[18] = hPRLR peptide residues 134-147 of SEQ ID NO: 404, Experiment II 10 min on-/5 min off-exchange
[19] = hPRLR peptide residues 135-147 of SEQ ID NO: 404, Experiment I 5 min on-/2.5 min off-exchange
[20] = hPRLR peptide residues 135-147 of SEQ ID NO: 404, Experiment II 10 min on-/5 min off-exchange
[21] = hPRLR peptide residues 136-147 of SEQ ID NO: 404, Experiment I 5 min on-/2.5 min off-exchange
[22] = hPRLR peptide residues 136-147 of SEQ ID NO: 404, Experiment II 10 min on-/5 min off-exchange
[23] = hPRLR peptide residues 137-147 of SEQ ID NO: 404, Experiment I 5 min on-/2.5 min off-exchange
[24] = hPRLR peptide residues 137-147 of SEQ ID NO: 404, Experiment II 10 min on-/5 min off-exchange
[25] = hPRLR peptide residues 168-179 of SEQ ID NO: 404, Experiment I 5 min on-/2.5 min off-exchange
[26] = hPRLR peptide residues 168-179 of SEQ ID NO: 404, Experiment II 10 min on-/5 min off-exchange
[27] = hPRLR peptide residues 168-180 of SEQ ID NO: 404, Experiment I 5 min on-/2.5 min off-exchange

T1 sequence (P16471 with tags, fused parts or gaps): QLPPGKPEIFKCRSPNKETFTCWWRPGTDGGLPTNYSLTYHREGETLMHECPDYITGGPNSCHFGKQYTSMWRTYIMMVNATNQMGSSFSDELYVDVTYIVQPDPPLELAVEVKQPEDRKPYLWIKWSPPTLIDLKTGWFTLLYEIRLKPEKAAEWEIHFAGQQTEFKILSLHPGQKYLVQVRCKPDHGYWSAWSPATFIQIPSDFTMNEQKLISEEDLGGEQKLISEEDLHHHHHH

B1: H1H6958N2: anti-PRLR antibody, receptor blocking, human IgG1 Fc form of H2M6958N2 of Table 1; HCVR/LCVR SEQ ID NOs 290/298 (antibody, V domains shown)
VH: QVQLVESGGGVVQPGRSLRLSCGASGFTFRNYGMQWVRQGPGKGLEWVTLISFDGNDKYYADSVKGRFTISRDNSKNTLFLQMNSLRTEDTAVYYCARGGDFDYWGQGTLVTVSS
VL: DIQMTQSPSSLSASVGDRVTITCRASQDIRKDLGWYQQKPGKAPKRLIYAASSLHSGVPSRFSGSGSGTEFTLTISSLQPEDFATYYCLQHNSYPMYTFGQGTKLEIK
Delta centroid greater than 0.20 m/z in both experiments
  epitope of PRLR with which the antibody interacts: amino acids 72 to 102 of SEQ ID NO: 404
[1]
  centroid m/z, on-beads/off-beads: 1306.50 m/z
  centroid m/z, on-solution/off beads: 1306.39 m/z
  Δ (centroid m/z difference): −0.10 m/z
[2]
  centroid m/z, on-beads/off-beads: 1306.38 m/z
  centroid m/z, on-solution/off beads: 1306.34 m/z
  Δ (centroid m/z difference): −0.04 m/z
[3]
  centroid m/z, on-beads/off-beads: 1005.05 m/z
  centroid m/z, on-solution/off beads: 1005.13 m/z
  Δ (centroid m/z difference): 0.07 m/z
[4]
  centroid m/z, on-beads/off-beads: 1005.18 m/z
  centroid m/z, on-solution/off beads: 1005.13 m/z
  Δ (centroid m/z difference): −0.05 m/z
[5]
  centroid m/z, on-beads/off-beads: 1136.15 m/z
  centroid m/z, on-solution/off beads: 1136.16 m/z
  Δ (centroid m/z difference): 0.01 m/z
[6]
  centroid m/z, on-beads/off-beads: 1136.49 m/z
  centroid m/z, on-solution/off beads: 1136.33 m/z
  Δ (centroid m/z difference): −0.16 m/z
[7]
  centroid m/z, on-beads/off-beads: 2572.17 m/z
  centroid m/z, on-solution/off beads: 2573.91 m/z
  Δ (centroid m/z difference): 1.74 m/z
[8]
  centroid m/z, on-beads/off-beads: 2572.12 m/z
  centroid m/z, on-solution/off beads: 2573.74 m/z
  Δ (centroid m/z difference): 1.62 m/z
[9]
  centroid m/z, on-beads/off-beads: 2703.43 m/z
  centroid m/z, on-solution/off beads: 2705.49 m/z
  Δ (centroid m/z difference): 2.06 m/z
[10]
  centroid m/z, on-beads/off-beads: 2703.70 m/z
  centroid m/z, on-solution/off beads: 2705.29 m/z
  Δ (centroid m/z difference): 1.60 m/z
[11]
  centroid m/z, on-beads/off-beads: 870.20 m/z
  centroid m/z, on-solution/off beads: 870.70 m/z
[12]
  centroid m/z, on-beads/off-beads: 870.20 m/z
  centroid m/z, on-solution/off beads: 870.71 m/z
  Δ (centroid m/z difference): 0.52 m/z
[13]
  centroid m/z, on-beads/off-beads: 1001.22 m/z
  centroid m/z, on-solution/off beads: 1001.59 m/z
  Δ (centroid m/z difference): 0.37 m/z
[14]
  centroid m/z, on-beads/off-beads: 1001.14 m/z
  centroid m/z, on-solution/off beads: 1001.62 m/z
  Δ (centroid m/z difference): 0.48 m/z
[15]
  centroid m/z, on-beads/off-beads: 1786.37 m/z
  centroid m/z, on-solution/off beads: 1786.59 m/z
  Δ (centroid m/z difference): 0.22 m/z
[16]
  centroid m/z, on-beads/off-beads: 1786.52 m/z
  centroid m/z, on-solution/off beads: 1786.55 m/z
  Δ (centroid m/z difference): 0.02 m/z
[17]
  centroid m/z, on-beads/off-beads: 1673.29 m/z
  centroid m/z, on-solution/off beads: 1673.36 m/z
  Δ (centroid m/z difference): 0.07 m/z
[18]
  centroid m/z, on-beads/off-beads: 1673.39 m/z
  centroid m/z, on-solution/off beads: 1673.50 m/z
  Δ (centroid m/z difference): 0.11 m/z
[19]
  centroid m/z, on-beads/off-beads: 1602.02 m/z
  centroid m/z, on-solution/off beads: 1602.15 m/z
  Δ (centroid m/z difference): 0.13 m/z
[20]
  centroid m/z, on-beads/off-beads: 1602.04 m/z
  centroid m/z, on-solution/off beads: 1602.15 m/z
  Δ (centroid m/z difference): 0.11 m/z
[21]
  centroid m/z, on-beads/off-beads: 1502.88 m/z
  centroid m/z, on-solution/off beads: 1502.85 m/z
  Δ (centroid m/z difference): −0.03 m/z
[22]
  centroid m/z, on-beads/off-beads: 1502.88 m/z
  centroid m/z, on-solution/off beads: 1502.79 m/z
  Δ (centroid m/z difference): −0.09 m/z
[23]
  centroid m/z, on-beads/off-beads: 1373.68 m/z
  centroid m/z, on-solution/off beads: 1373.78 m/z
  Δ (centroid m/z difference): 0.09 m/z
[24]
  centroid m/z, on-beads/off-beads: 1373.84 m/z
  centroid m/z, on-solution/off beads: 1373.80 m/z
  Δ (centroid m/z difference): −0.04 m/z
[25]
  centroid m/z, on-beads/off-beads: 1447.71 m/z
  centroid m/z, on-solution/off beads: 1447.73 m/z
  Δ (centroid m/z difference): 0.02 m/z
[26]
  centroid m/z, on-beads/off-beads: 1447.78 m/z
  centroid m/z, on-solution/off beads: 1447.76 m/z
  Δ (centroid m/z difference): −0.02 m/z
[27]
  centroid m/z, on-beads/off-beads: 1633.66 m/z
  centroid m/z, on-solution/off beads: 1633.59 m/z
